# What was measured:
# Assay in all cases: cleavage_in_vitro
# [1] = tested on: T1, OMNI-95 (metagenomic, unknown); details: TXTL; PAM NNGYAANN
# T1 sequence: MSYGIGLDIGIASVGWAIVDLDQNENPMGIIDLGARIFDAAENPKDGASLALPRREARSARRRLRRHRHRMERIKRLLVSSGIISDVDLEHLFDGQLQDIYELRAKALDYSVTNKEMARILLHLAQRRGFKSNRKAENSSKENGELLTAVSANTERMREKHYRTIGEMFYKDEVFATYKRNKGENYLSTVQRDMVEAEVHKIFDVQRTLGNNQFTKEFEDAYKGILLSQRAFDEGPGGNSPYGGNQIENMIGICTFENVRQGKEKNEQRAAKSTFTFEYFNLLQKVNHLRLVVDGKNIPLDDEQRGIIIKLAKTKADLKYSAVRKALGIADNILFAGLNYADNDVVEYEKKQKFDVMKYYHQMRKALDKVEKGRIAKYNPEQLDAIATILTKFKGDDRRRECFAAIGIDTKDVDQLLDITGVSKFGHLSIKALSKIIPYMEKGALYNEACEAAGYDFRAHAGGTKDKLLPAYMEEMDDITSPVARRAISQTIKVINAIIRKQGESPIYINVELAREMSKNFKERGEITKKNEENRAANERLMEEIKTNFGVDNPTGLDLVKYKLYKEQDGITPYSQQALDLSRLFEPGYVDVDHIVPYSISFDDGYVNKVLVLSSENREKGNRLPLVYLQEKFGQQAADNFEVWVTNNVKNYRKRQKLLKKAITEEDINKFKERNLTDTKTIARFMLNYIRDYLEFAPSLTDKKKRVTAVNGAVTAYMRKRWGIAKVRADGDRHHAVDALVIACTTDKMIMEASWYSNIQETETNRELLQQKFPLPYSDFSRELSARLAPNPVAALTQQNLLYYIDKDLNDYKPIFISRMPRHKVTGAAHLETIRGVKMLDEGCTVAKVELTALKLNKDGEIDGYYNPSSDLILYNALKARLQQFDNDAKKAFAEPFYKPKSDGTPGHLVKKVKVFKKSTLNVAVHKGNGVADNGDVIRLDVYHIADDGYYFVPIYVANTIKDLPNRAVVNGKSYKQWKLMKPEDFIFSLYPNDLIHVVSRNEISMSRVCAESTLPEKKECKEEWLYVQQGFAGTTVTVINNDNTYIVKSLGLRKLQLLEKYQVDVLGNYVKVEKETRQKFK
# [2] = tested on: T2, OMNI-94 (metagenomic, unknown); details: TXTL; PAM NNRRAYGN
# T2 sequence: T1 sequence
# [3] = tested on: T3, OMNI-138 (metagenomic, unknown); details: TXTL; PAM NNNNGTKA
# T3 sequence: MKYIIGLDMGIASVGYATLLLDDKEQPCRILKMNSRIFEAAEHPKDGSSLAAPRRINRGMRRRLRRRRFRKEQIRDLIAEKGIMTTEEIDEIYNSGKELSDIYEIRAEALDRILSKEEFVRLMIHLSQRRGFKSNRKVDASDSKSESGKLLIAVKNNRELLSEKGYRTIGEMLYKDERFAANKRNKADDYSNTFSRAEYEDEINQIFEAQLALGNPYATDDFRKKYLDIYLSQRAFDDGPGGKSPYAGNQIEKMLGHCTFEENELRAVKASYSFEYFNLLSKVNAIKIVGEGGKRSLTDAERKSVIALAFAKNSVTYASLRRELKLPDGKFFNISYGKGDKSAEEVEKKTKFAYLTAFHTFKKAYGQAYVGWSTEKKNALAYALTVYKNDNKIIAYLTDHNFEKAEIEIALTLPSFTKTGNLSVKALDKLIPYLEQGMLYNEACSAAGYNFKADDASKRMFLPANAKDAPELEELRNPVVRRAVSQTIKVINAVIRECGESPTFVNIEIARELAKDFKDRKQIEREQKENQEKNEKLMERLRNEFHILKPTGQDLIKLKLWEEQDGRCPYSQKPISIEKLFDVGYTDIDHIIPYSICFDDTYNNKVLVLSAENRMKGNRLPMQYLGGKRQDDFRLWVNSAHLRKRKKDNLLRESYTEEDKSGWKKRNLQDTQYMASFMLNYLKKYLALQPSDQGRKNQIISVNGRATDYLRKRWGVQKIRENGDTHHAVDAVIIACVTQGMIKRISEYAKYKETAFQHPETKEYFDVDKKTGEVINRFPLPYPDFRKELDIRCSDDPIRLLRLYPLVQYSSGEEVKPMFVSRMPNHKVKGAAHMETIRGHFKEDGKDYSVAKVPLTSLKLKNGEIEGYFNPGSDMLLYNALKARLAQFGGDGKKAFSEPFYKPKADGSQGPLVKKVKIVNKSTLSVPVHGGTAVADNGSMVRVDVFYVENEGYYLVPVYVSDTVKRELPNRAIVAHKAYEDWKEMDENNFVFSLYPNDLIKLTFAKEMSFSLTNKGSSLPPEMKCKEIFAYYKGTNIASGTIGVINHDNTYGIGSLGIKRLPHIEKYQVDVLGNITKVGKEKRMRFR
# [4] = tested on: T4, OMNI-137 (metagenomic, unknown); details: TXTL; PAM NNRCRGNN
# T4 sequence: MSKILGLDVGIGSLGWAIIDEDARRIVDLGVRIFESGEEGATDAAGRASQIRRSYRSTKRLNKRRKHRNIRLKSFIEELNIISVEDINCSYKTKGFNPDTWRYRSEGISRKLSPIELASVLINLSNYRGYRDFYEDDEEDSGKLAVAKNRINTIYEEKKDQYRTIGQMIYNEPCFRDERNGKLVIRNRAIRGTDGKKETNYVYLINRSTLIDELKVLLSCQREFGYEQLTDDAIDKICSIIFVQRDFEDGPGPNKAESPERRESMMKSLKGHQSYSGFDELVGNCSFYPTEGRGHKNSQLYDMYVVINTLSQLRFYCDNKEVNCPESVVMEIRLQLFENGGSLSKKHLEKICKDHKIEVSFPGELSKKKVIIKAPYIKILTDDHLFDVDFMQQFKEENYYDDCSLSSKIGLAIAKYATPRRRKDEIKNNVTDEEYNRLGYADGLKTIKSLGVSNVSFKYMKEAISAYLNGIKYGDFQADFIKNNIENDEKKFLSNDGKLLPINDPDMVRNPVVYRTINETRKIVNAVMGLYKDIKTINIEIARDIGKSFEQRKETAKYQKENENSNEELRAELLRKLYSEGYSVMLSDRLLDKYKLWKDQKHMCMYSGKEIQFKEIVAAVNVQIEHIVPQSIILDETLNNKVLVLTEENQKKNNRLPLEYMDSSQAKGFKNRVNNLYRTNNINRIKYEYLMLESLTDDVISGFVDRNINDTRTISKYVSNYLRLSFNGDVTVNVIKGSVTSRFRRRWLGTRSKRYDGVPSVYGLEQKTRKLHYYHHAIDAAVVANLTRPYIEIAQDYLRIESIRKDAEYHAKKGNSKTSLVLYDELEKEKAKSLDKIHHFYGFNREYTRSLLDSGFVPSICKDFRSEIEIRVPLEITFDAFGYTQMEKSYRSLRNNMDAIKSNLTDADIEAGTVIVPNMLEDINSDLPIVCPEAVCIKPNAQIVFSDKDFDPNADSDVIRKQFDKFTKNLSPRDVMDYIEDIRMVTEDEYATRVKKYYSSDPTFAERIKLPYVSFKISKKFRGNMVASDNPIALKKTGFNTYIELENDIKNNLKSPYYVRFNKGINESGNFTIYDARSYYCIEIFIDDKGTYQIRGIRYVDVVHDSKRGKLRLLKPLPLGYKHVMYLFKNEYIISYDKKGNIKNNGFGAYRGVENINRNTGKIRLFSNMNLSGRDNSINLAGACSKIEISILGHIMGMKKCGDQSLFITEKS
sequence,measurement,setting,value
GGAAGAGCAGAGCCUUGGUCUCAUUUUAGUACCUGGAGAAAGAAAUUUCUUCAGACCUACUAAAACAAGGCUUUAUGCCGAAAGUUUUUUUGAUUUGAAUUGAAUGAGUUGAAAGAGGAUGCCGACGGGUGUCCUCUUUUUUU / GGAAGAGCAGAGCCTTGGTCTCNNNNNNNN / NNNNNNNNGAGACCAAGGCTCTGCTCTTCC [T2 sgRNA 6 V1 ; T2 protospacer + 8N PAM library (pbPOS T2)],activity (1-depletion score),[1],0.77
GGAAGAGCAGAGCCUUGGUCUCGUUGUAGCUCCCUGUUAAUGAAAACUAACAGGUUACUACAAUAAGGUCUUAGGACCGCAAAGCUCUAUCGCCCUACAUCCGUAGGGCGAUAUCUUUUUAUACAUUUUUU / GGAAGAGCAGAGCCTTGGTCTCNNNNNNNN / NNNNNNNNGAGACCAAGGCTCTGCTCTTCC [T2 sgRNA 5 V1 ; T2 protospacer + 8N PAM library (pbPOS T2)],activity (1-depletion score),[2],0.69
GGAAGAGCAGAGCCUUGGUCUCGUUGUAGUUCCCUAAUUAUGAAAACAAUUAGGUUACUAUGAUAAGGUAGUAUACCGCAAAGCUCUAACGCCUCAUCUUAAUGAUGGGGCGUUAUCUUUUUU / GGAAGAGCAGAGCCTTGGTCTCNNNNNNNN / NNNNNNNNGAGACCAAGGCTCTGCTCTTCC [T2 sgRNA 38 V1 ; T2 protospacer + 8N PAM library (pbPOS T2)],activity (1-depletion score),[3],0.97
GGAAGAGCAGAGCCUUGGUCUCGUUUUAGUUCUCGGACGAAAGUCCGAGAAUCUAAGAUAAAGCUAUAUGCUGUGGGGUUGCGUAUCCCCUUAUCGAACGUACUAAGAUGAGUUUCGGCUCAUCUUUUUU / GGAAGAGCAGAGCCTTGGTCTCNNNNNNNN / NNNNNNNNGAGACCAAGGCTCTGCTCTTCC [T2 sgRNA 37 V1 ; T2 protospacer + 8N PAM library (pbPOS T2)],activity (1-depletion score),[4],0.97

# Source: US20240425885
